Key:
[1] = molecular target: T1, acetylcholinesterase (AChE) (electric eel, UniProt O42275 24-633); experiment: ELONA; low ionic strength ~0.02 M, no NaCl, 4 mM MgCl2; 8 mM Na2HPO4, 2 mM NaH2PO4, 2.7 mM KCl, 137 mM NaCl, 4 mM MgCl2, pH 7.4, room temperature, 2 h; wells coated with 10 nM AChE, blocked with 1% BSA; washes with 0.05% Tween 20; conditions: protein: native; label: 5'-biotin, detected by streptavidin-HRP
[2] = molecular target: T1, acetylcholinesterase (AChE); experiment: ELONA; selection buffer, ionic strength ~0.15 M, 137 mM NaCl, 4 mM MgCl2; 8 mM Na2HPO4, 2 mM NaH2PO4, 2.7 mM KCl, 137 mM NaCl, 4 mM MgCl2, pH 7.4, room temperature, 2 h; wells coated with 10 nM AChE, blocked with 1% BSA; washes with 0.05% Tween 20; conditions: protein: native; label: 5'-biotin, detected by streptavidin-HRP

T1 sequence (O42275 24-633): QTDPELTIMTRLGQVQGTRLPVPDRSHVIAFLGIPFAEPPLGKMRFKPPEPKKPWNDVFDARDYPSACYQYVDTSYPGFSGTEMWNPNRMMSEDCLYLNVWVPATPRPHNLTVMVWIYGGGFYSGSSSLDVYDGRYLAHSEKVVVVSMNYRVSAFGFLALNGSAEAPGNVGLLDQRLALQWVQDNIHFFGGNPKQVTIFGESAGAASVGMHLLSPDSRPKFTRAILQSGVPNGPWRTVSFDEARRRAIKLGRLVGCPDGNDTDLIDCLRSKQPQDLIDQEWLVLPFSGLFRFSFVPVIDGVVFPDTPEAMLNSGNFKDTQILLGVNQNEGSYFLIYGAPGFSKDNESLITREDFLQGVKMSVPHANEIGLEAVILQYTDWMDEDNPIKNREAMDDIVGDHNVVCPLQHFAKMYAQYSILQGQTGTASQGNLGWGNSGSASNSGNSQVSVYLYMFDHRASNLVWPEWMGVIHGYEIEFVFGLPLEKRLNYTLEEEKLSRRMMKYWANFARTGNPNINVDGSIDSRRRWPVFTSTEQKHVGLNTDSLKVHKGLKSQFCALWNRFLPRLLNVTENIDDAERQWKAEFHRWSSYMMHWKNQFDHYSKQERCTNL

B1: R15/19 (also R15/C19) (ssDNA)
DNA: AAGCATCCGCTGGTTGACTGTAGCTCTGGCAGACGTAGTGTGAAGGTACCAGCTATTGGGATCTTGGACCCTGCGAA
modifications: 5'-biotin (ELONA)
Kd [1]: 0.243 ± 0.047 nM | Kd [2]: 0.157 ± 0.042 nM

Reference: publication PMC6271157, “High Efficiency Acetylcholinesterase Immobilization on DNA Aptamer Modified Surfaces”
